In patent publication US20140329787A1, “PHYTOPHTHORA PHOSPHOLIPASE C” (Deakin University, priority 2011, published 2014):
Entries after “also recorded” stand apart in the source; their conditions may differ.

Columns and labels:
[1] = Hydrolysis of PIPx, neutral-lipid TLC; type: biochemical; conditions: 0.2 mg/ml enzyme
Protocol: Lipid samples of 0.5 μl were applied to silica 60 TLC plates and allowed to dry prior to the addition of more sample. Neutral lipids were applied to 10×20 cm pre-absorption zone-bearing silica-60 plates (Sigma-Aldrich, USA) and resolved in a solvent mixture of hexane:diethyl ether:acetic acid (9:1:0.5). Phospholipids were resolved on 20×20 cm silica-60 plates (Merck, Australia), without a pre-absorption zone, in a solvent mixture of chloroform:methanol:acetic acid:water (90:40:12:2). Lipids were detected by spraying the dried TLC plates with a solution of 0.05% rhodamine B (Sigma) in methanol and destaining was performed by repeated spraying with 5 M KOH. Lipid spots were then visualised following UV excitation at 312 nm.
Alt-PLC and Alt-PLC2 were refolded into buffer A4 at a concentration of 0.2 mg/ml and a hydrolysis reaction was performed using PIPx (mixed phosphatidylinositols, Sigma) as the substrate. The reaction was performed as described previously and the resultant neutral lipids were extracted by diethyl ether phase extraction. The samples were analysed by neutral-lipid thin-layer chromatography, on silica 60 plates with a pre-absorption zone; the mobile phase employed was hexane: diethyl ether: acetic acid (9:1:0.5).

[2] = system: E. coli; experiment: Growth curves of E. coli expressing Alt-PLC and truncations; type: cell-based; conditions: relative to E. coli not expressing Alt-PLC
Protocol: An analysis of function of the Alt-PLC truncations was performed using growth curves of Alt-PLC expressing E. coli cells (FIG. 28).
Therefore, growth curves of E. coli expressing Alt-PLC and the truncations allow determination of Alt-PLC function in vivo.

Row | Molecule | monoacylglycerol production / phospholipase C activity level in vitro [1] | growth of expressing E. coli (function in vivo) [2]
1 | Alt-PLC2: Phytophthora sojae Alt-PLC with the additional 35aa fragment in the RAS-GEF domain, SEQ ID NO: 14 (protein, listed as Phytophthora sojae) MASGWRQKPRLDPWDPPSPPPLLEEAAPKPKPKTSRFSRRSTRAKSHARQQAQHVELEREKAFRLVRHGSDPLLNDAFYATQVQVGNFVKMGWLTKQGHMWKSWKTRFFVLFSDGTFAYYKNKGRKKIKGCMQLNDGVVSVQHVDIRLADKAYVFQIEKGFYKLLCYCCSQFEAELWVAALRSVRRVAPPCYEMDLTATEEKAGSNAVTRHLNKIFITDKQIAKRLAEFKANTHDHSYAAIHNFIVELDDAIIDRHHLEFYQDAEIELLPGNELVRLIRRHVEDRVFIPLYAEAYASLETDKVKTRRSNLEQHLKVLKQKTQADFGISKDLSVCNWKQAISVVNMLDCVSLPTHKFEVILSAGKAIMELIAQYNGELFEVSDEMLTAIFRYVVTMSSLSDLPTLRALLKYGYQHHPASQNKANVVTAFLNAIKWVECFEAGDESYQFDSLALAGSRVSVSISTNDVGIQFTTDGNGRGAIVYNIRKQSQAALSAAIVPGLSLIAINHEPVIGMPFDKIIQRVRTAALPKQLTFMTEFYYYQLLSLDSEMYQYLMCIAARRGDLDSAAWMRSSTIELNTLCSWEKSRGKQVFGFTPVSGKGSPLHAAVHNGQLSMVNYLISRGADVNLCNQKGRRPLHVVKQSIDMAMIIQSLIDAGADIDAMEKHGLTPLMFMCSRASLEGSATLLALGADVHCVAWTNGFSALEFAVKSEHTELVELCLSKGANPNAPTLDGNTSLHLAATQANTDIILRLLQGGANPNVQNRYGQTPAALLLASSPGGSSDVRILCLEILTCAGCRLDKRDLFGRQASHLASISRDSHVVDLLRKLGSLNREANGVEIDIFGCSSVDYSHRIEVDKSASYLGSQMPNSSWKMVDKDDHVSRSARPGSVDDLIRELVAGTEVDLVDVVSFVLFLDSFSSLNEVVDRLSAHVRNGVKSHGLIRLFIVVLLFRQSETKEADDLRDRFYSLISLNIDAKDKLEYFSLRGAGNYAVNYQAIPGMMSKVYGMESGFEPVSSGPFSAHLHRFVDAERWAEQCTLLTHAVFCKIPVRDFIPTGSKKKHSVEFTSIKRWFQHISAFVINAVLVQNTPEERAEVISFYLKVADYCISLHNHDTLASILYALQSTAVQRLRKTIDCLSLDAKKMMNEMQLLSDKGCREMNRLMRKTANPSMPYIGLYLQGFVGLNELPAFDKEGLVNANRLRRMGELAMEILHRQSVAYTLQHDEDVNKLLHVSLPYSSEESRYARSLELEPREADAIPLSDRGSYTLIDDDVDLENEVRESIGGDGTFGFRQWIRKQQVVHRNRSRSSVIALY | detection of monoacylglycerol production | same reduced growth rate shown by cells expressing Alt-PLC1
2 | t1: truncated Phytophthora sojae Alt-PLC1, SEQ ID NO: 17 (protein, Derived from Phytophthora sojae) YQFDSLALAGSRVSVSISTNDVGIQFTTDGNGRGAIVYNIRKQSQAALSAAIVPGLSLIAINHEPVIALEFAVKIDYSHRIEVDKSASYLGSQMPNSSWKMVDKDDHVSRSARPGSVDDLIRELVAGTEVDLVDVVSFVLFLDSFSSLNEVVDRLSAHVRNGVKSHGLIRLFIVVLLFRQSETKEADDLRDRFYSLISLNIDAKDKLVPLVEEYMSLYKEYFSLRGAGNYAVNYQAIPGMMSKVYGMESGFEPVSSGPFSAHLHRFV |  | reduced growth of E. coli
3 | t2: truncated Phytophthora sojae Alt-PLC1, SEQ ID NO: 18 (protein, Derived from Phytophthora sojae) YQFDSLALAGSRVSVSISTNDVGIQFTTDGNGRGAIVYNIRKQSQAALSAAIVPGLSLIAINHEPVIALEFAVKIDYSHRIEVDKSASYLGSQMPNSSWKMVDKDDHVSRSARPGSVDDLIRELVAGTEVDLVDVVSFVLFLDSFSSLNEVVDRLSAHVRNGVKSHGLIRLFIVVLLFRQSETKEADDLRDRFYSLISLNIDAKDKLVPLVEEYMSLYKEYFSLRGAGNYAVNYQAIPGMMSKVYGMESGFEPVSSGPFSAHLHRFVHPFIQRNHAATATVTMHHLLFTNPLTKAKGAIAANAFTHFVFQIHIIINQGIAATIAQRNRIRFTRFQFQATRITAFFAAIRQAHMQQFVHIFIMLQGIRHALTMQNFHRQFAHTTQTVRVHQAFFIKRRQFVQAHKALQIQANIRHARVRGFTHQTVHFTAAFIAQQLHFVHHFLCIQAQFQ |  | reduced growth of E. coli
4 | t3: truncated Phytophthora sojae Alt-PLC1, SEQ ID NO: 19 (protein, Derived from Phytophthora sojae) YQFDSLALAGSRVSVSISTNDVGIQFTTDGNGRGAIVYNIRKQSQAALSAAIVPGLSLIAINHEPVIALEFAVKIDYSHRIEVDKSASYLGSQMPNSSWKMVDKDDHVSRSARPGSVDDLIRELVAGTEVDLVDVVSFVLFLDSFSSLNEVVDRLSAHVRNGVKSHGLIRLFIVVLLFRQSETKEADDLRDRFYSLISLNIDAKDKLVPLVEEYMSLYKEYFSLRGAGNYAVNYQAIPGMMSKVYGMESGFEPVSSGPFSAHLHRFVHPFIQRNHAATATVTMHHLLFTNPLTKAKGAIAANAFTHFVFQIHIIINQGIAATIAQRNRIRFTRFQFQATRITAFFAAIRQAHMQQFVHIFIMLQGIRHALTMQNFHRQFAHTTQTVRVHQAFFIKRRQFVQAHKALQIQANIRHARVRGFTHQTVHFTAAFIAQQLHFVHHFLCIQAQFQIKANHFRTFFRGVLHQHRVNHKRANMLKPTFNAGKFHAMLFLATGRNKITHRNFAKHRMGQQGALFRPTFRI |  | reduced growth of E. coli; also recorded: significantly higher lethality
